T1: SHANK1, Q9Y566
T1 sequence (Q9Y566 658-767, limits assumed, looked up): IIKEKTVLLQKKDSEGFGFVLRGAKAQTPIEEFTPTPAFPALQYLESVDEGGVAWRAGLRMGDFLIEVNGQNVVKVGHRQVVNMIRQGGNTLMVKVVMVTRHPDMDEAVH

T2: APBA3_1, O96018
T2 sequence (O96018 389-490, limits assumed, looked up): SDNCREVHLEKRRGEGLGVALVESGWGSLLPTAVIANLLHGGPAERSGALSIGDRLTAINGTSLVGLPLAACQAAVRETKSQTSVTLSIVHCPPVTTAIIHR

T3: SNTG2, Q9NY99
T3 sequence (Q9NY99 68-166, limits assumed, looked up): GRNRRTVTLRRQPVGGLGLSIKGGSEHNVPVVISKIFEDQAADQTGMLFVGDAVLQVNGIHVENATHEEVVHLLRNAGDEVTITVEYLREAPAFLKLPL

T4: APBA2_1, Q99767
T4 sequence (Q99767 563-664, limits assumed, looked up): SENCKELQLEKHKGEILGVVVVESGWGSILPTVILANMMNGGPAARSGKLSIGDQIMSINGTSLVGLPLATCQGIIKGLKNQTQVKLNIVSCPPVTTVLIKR

T5: GRIP1_5, Q9Y3R0
T5 sequence (Q9Y3R0 568-668, limits assumed, looked up): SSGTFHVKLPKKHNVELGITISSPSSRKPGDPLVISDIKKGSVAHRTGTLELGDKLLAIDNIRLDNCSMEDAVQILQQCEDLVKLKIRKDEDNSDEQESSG

T6: SNTG1, Q9NSN8
T6 sequence (Q9NSN8 52-150, limits assumed, looked up): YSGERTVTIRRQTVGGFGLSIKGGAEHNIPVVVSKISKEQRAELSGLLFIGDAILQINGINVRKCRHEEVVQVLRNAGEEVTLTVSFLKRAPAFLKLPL

T7: APBA1_1, Q02410
T7 sequence (Q02410 651-752, limits assumed, looked up): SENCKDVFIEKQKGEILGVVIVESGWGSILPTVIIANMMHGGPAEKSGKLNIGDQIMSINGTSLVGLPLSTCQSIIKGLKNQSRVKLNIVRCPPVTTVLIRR

T8: MPDZ_5, O75970
T8 sequence (O75970 695-796, limits assumed, looked up): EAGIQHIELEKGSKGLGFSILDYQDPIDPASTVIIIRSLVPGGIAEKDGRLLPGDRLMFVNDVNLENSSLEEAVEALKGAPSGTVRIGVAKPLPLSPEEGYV

T9: GRIP1_2, Q9Y3R0
T9 sequence (Q9Y3R0 145-248, limits assumed, looked up): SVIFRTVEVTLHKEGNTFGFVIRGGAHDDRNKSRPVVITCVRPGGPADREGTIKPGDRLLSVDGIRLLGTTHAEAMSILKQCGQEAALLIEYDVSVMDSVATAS

T10: NHERF3_1, Q5T2W1
T10 sequence (Q5T2W1 4-100, limits assumed, looked up): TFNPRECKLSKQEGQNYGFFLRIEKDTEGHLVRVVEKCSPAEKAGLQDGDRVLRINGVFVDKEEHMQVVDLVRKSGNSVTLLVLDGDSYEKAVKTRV

T11: TJP3_3, O95049
T11 sequence (O95049 375-456, limits assumed, looked up): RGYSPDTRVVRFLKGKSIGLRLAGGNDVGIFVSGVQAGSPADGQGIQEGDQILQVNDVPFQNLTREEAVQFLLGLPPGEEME

T12: SNTB1, Q13884
T12 sequence (Q13884 107-205, limits assumed, looked up): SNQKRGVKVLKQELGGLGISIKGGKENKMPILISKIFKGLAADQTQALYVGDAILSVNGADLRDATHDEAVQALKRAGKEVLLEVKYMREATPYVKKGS

B1: YAP1, P46937 (peptide)
chain: LDKESFLTWL
B2: NECTIN3, Q9NQS3 (peptide)
chain: SVISRREWYV

The binders below were run against T1, SHANK1, Q9Y566 (assay: holdup assay). Conditions: plain residues with an end cap or a label only (N-terminal biotin on a linker: ado-ado).
Set-up: key: below the threshold = too weak to quantify, mostly under pKd 3.1 to 4

pKd	Binder
5.4	B1
below the threshold	B2

What follows are binders tested against T2, APBA3_1, O96018 (assay: holdup assay). Conditions: plain residues with an end cap or a label only (N-terminal biotin on a linker: ado-ado).
Set-up: key: below the threshold = too weak to quantify, mostly under pKd 3.1 to 4

pKd	Binder
below the threshold	B1
below the threshold	B2

What follows are binders tested against GOPC, Q9HD26 (assay: holdup assay). Conditions: plain residues with an end cap or a label only (N-terminal biotin on a linker: ado-ado).
Set-up: key: below the threshold = too weak to quantify, mostly under pKd 3.1 to 4

pKd	Binder
3.87	B1
below the threshold	B2

Each binder was assayed against T3, SNTG2, Q9NY99 (assay: holdup assay). Conditions: plain residues with an end cap or a label only (N-terminal biotin on a linker: ado-ado).
Set-up: key: below the threshold = too weak to quantify, mostly under pKd 3.1 to 4

pKd	Binder
below the threshold	B1
below the threshold	B2

These binders were tested against T4, APBA2_1, Q99767 (assay: holdup assay). Conditions: plain residues with an end cap or a label only (N-terminal biotin on a linker: ado-ado).
Set-up: key: below the threshold = too weak to quantify, mostly under pKd 3.1 to 4

pKd	Binder
below the threshold	B1
below the threshold	B2

What follows are binders tested against T5, GRIP1_5, Q9Y3R0 (assay: holdup assay). Conditions: plain residues with an end cap or a label only (N-terminal biotin on a linker: ado-ado).
Set-up: key: below the threshold = too weak to quantify, mostly under pKd 3.1 to 4

pKd	Binder
below the threshold	B1
below the threshold	B2

What follows are binders tested against T6, SNTG1, Q9NSN8 (assay: holdup assay). Conditions: plain residues with an end cap or a label only (N-terminal biotin on a linker: ado-ado).
Set-up: key: below the threshold = too weak to quantify, mostly under pKd 3.1 to 4

pKd	Binder
below the threshold	B1
3.79	B2

These binders were tested against DLG1_3, Q12959 (assay: holdup assay). Conditions: plain residues with an end cap or a label only (N-terminal biotin on a linker: ado-ado).
DLG1_3, Q12959, sequence (Q12959 457-571): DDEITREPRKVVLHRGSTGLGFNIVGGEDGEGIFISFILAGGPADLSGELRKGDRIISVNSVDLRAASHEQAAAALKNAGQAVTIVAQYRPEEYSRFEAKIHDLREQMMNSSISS
Set-up: key: below the threshold = too weak to quantify, mostly under pKd 3.1 to 4

pKd	Binder
below the threshold	B1
below the threshold	B2

These binders were tested against MAGI1_1, Q96QZ7 (assay: holdup assay). Conditions: plain residues with an end cap or a label only (N-terminal biotin on a linker: ado-ado).
MAGI1_1, Q96QZ7, sequence (Q96QZ7 1-106): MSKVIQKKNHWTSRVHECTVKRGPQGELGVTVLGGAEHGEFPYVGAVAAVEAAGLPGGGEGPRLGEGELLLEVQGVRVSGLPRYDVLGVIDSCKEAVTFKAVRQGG
Set-up: key: below the threshold = too weak to quantify, mostly under pKd 3.1 to 4

pKd	Binder
3.65	B1
below the threshold	B2

These binders were tested against T7, APBA1_1, Q02410 (assay: holdup assay). Conditions: plain residues with an end cap or a label only (N-terminal biotin on a linker: ado-ado).
Set-up: key: below the threshold = too weak to quantify, mostly under pKd 3.1 to 4

pKd	Binder
4.06	B1
below the threshold	B2

What follows are binders tested against DLG2_3, Q15700 (assay: holdup assay). Conditions: plain residues with an end cap or a label only (N-terminal biotin on a linker: ado-ado).
Set-up: key: below the threshold = too weak to quantify, mostly under pKd 3.1 to 4

pKd	Binder
below the threshold	B1
4.05	B2

These binders were tested against AHNAK1, Q09666 (assay: holdup assay). Conditions: plain residues with an end cap or a label only (N-terminal biotin on a linker: ado-ado).
AHNAK1, Q09666, sequence (Q09666 4-100): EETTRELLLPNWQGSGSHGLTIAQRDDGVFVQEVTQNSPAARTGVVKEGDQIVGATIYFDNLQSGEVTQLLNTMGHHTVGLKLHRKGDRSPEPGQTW
Set-up: key: below the threshold = too weak to quantify, mostly under pKd 3.1 to 4

pKd	Binder
below the threshold	B1
below the threshold	B2

These binders were tested against T8, MPDZ_5, O75970 (assay: holdup assay). Conditions: plain residues with an end cap or a label only (N-terminal biotin on a linker: ado-ado).
Set-up: key: below the threshold = too weak to quantify, mostly under pKd 3.1 to 4

pKd	Binder
below the threshold	B1
5.19	B2

Each binder was assayed against GRIP2_6, Q9C0E4 (assay: holdup assay). Conditions: plain residues with an end cap or a label only (N-terminal biotin on a linker: ado-ado).
GRIP2_6, Q9C0E4, sequence (Q9C0E4 648-740): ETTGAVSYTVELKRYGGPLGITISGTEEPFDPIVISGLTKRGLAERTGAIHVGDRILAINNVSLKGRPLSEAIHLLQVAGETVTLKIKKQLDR
Set-up: key: below the threshold = too weak to quantify, mostly under pKd 3.1 to 4

pKd	Binder
below the threshold	B1
4.81	B2

What follows are binders tested against T9, GRIP1_2, Q9Y3R0 (assay: holdup assay). Conditions: plain residues with an end cap or a label only (N-terminal biotin on a linker: ado-ado).
Set-up: key: below the threshold = too weak to quantify, mostly under pKd 3.1 to 4

pKd	Binder
3.51	B1
below the threshold	B2

What follows are binders tested against T10, NHERF3_1, Q5T2W1 (assay: holdup assay). Conditions: plain residues with an end cap or a label only (N-terminal biotin on a linker: ado-ado).
Set-up: key: below the threshold = too weak to quantify, mostly under pKd 3.1 to 4

pKd	Binder
5.1	B1
4.52	B2

These binders were tested against PARD3_3, Q8TEW0 (assay: holdup assay). Conditions: plain residues with an end cap or a label only (N-terminal biotin on a linker: ado-ado).
PARD3_3, Q8TEW0, sequence (Q8TEW0 582-685): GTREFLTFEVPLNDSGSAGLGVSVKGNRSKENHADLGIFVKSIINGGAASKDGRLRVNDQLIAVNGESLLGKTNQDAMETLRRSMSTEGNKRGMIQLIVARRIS
Set-up: key: below the threshold = too weak to quantify, mostly under pKd 3.1 to 4

pKd	Binder
4.98	B1
4.75	B2

Each binder was assayed against T11, TJP3_3, O95049 (assay: holdup assay). Conditions: plain residues with an end cap or a label only (N-terminal biotin on a linker: ado-ado).
Set-up: key: below the threshold = too weak to quantify, mostly under pKd 3.1 to 4

pKd	Binder
4.18	B1
4.39	B2

The binders below were run against GORASP1, Q9BQQ3 (assay: holdup assay). Conditions: plain residues with an end cap or a label only (N-terminal biotin on a linker: ado-ado).
GORASP1, Q9BQQ3, sequence (Q9BQQ3 1-208): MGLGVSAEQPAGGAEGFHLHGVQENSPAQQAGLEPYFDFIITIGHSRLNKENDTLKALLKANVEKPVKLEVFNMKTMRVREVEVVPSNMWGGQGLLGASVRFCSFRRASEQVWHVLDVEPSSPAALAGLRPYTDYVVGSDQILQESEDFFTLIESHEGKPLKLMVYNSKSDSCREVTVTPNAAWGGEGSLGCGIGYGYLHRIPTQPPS
Set-up: key: below the threshold = too weak to quantify, mostly under pKd 3.1 to 4

pKd	Binder
5.11	B1
4.63	B2

Each binder was assayed against T12, SNTB1, Q13884 (assay: holdup assay). Conditions: plain residues with an end cap or a label only (N-terminal biotin on a linker: ado-ado).
Set-up: key: below the threshold = too weak to quantify, mostly under pKd 3.1 to 4

pKd	Binder
below the threshold	B1
below the threshold	B2

The binders below were run against Inadl_9, Q8NI35 (assay: holdup assay). Conditions: plain residues with an end cap or a label only (N-terminal biotin on a linker: ado-ado).
Inadl_9, Q8NI35, sequence (Q8NI35 1530-1615): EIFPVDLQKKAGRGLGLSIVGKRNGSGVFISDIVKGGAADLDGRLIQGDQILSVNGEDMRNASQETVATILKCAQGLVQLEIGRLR
Set-up: key: below the threshold = too weak to quantify, mostly under pKd 3.1 to 4

pKd	Binder
3.99	B1
4.51	B2

These binders were tested against GRID2IP_2, A4D2P6 (assay: holdup assay). Conditions: plain residues with an end cap or a label only (N-terminal biotin on a linker: ado-ado).
GRID2IP_2, A4D2P6, sequence (A4D2P6 272-370): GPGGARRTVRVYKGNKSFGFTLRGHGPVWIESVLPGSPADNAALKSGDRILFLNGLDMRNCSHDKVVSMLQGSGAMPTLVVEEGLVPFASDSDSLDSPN
Set-up: key: below the threshold = too weak to quantify, mostly under pKd 3.1 to 4

pKd	Binder
4.52	B1
3.49	B2

What follows are binders tested against GRIP2_7, Q9C0E4 (assay: holdup assay). Conditions: plain residues with an end cap or a label only (N-terminal biotin on a linker: ado-ado).
GRIP2_7, Q9C0E4, sequence (Q9C0E4 934-1023): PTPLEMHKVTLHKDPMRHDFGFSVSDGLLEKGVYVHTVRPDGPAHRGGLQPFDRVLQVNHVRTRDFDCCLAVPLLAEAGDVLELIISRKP
Set-up: key: below the threshold = too weak to quantify, mostly under pKd 3.1 to 4

pKd	Binder
4.05	B1
5.47	B2

What follows are binders tested against Inadl_8, Q8NI35 (assay: holdup assay). Conditions: plain residues with an end cap or a label only (N-terminal biotin on a linker: ado-ado).
Inadl_8, Q8NI35, sequence (Q8NI35 1425-1530): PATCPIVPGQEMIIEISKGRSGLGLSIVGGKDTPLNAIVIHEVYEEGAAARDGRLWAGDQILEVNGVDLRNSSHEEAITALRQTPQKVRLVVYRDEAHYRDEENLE
Set-up: key: below the threshold = too weak to quantify, mostly under pKd 3.1 to 4

pKd	Binder
3.48	B1
3.98	B2

Reference: article PMC9482650, “Quantitative fragmentomics allow affinity mapping of interactomes” (Nature Communications, 2022)
